* marks the point of attachment. MTSL = spin label, CC1(C)C=C(CS*)C(C)(C)N1[O]

To fix the notation:
B1: UL31^(22–42) peptide (peptide)
peptide: Ac-RRSRSSAAGGTLGVVRRASRK-NH2
notes: source: synthetic peptide, bought: Peptide 2.0
B2: UL31^(41–50) peptide (peptide)
peptide: Ac-RKSLPPHARK-NH2
notes: also called UL31 mini-MPR peptide; source: synthetic peptide, bought: Peptide 2.0
B3: UL31^(41–C51) peptide, spin-labelled (peptide)
peptide: Ac-RKSLPPHARKC(MTSL)-NH2
SMILES: CC(=O)N[C@@H](CCCNC(=N)N)C(=O)N[C@@H](CCCCN)C(=O)N[C@@H](CO)C(=O)N[C@@H](CC(C)C)C(=O)N1CCC[C@H]1C(=O)N1CCC[C@H]1C(=O)N[C@@H](Cc1c[nH]cn1)C(=O)N[C@@H](C)C(=O)N[C@@H](CCCNC(=N)N)C(=O)N[C@@H](CCCCN)C(=O)N[C@@H](CSSCC1=CC(C)(C)N([O])C1(C)C)C(N)=O
notes: also called mini-MPR with C-terminal cysteine; C51_(31); source: synthetic peptide, bought: Peptide 2.0
B4: UL31^(C21–42) peptide, spin-labelled (peptide)
peptide: Ac-C(MTSL)RRSRSSAAGGTLGVVRRASRK-NH2
notes: also called C21_(31); source: synthetic peptide, bought: Peptide 2.0
B5: UL31^(22–C43) peptide, spin-labelled (peptide)
peptide: Ac-RRSRSSAAGGTLGVVRRASRKC(MTSL)-NH2
notes: also called C43_(31); source: synthetic peptide, bought: Peptide 2.0
B6: UL31^(C40–50) peptide, spin-labelled (peptide)
peptide: Ac-C(MTSL)RKSLPPHARK-NH2
SMILES: CC(=O)N[C@@H](CSSCC1=CC(C)(C)N([O])C1(C)C)C(=O)N[C@@H](CCCNC(=N)N)C(=O)N[C@@H](CCCCN)C(=O)N[C@@H](CO)C(=O)N[C@@H](CC(C)C)C(=O)N1CCC[C@H]1C(=O)N1CCC[C@H]1C(=O)N[C@@H](Cc1c[nH]cn1)C(=O)N[C@@H](C)C(=O)N[C@@H](CCCNC(=N)N)C(=O)N[C@@H](CCCCN)C(N)=O
notes: also called mini-MPR with N-terminal cysteine; C40_(31); source: synthetic peptide, bought: Peptide 2.0

For one assay, the target named is T1, UL34^(174–194) peptide, unlabelled (herpes simplex virus 1 (HSV-1), UniProt P10218 174-194, N-terminally acetylated; C-terminally amidated).
T1 construct: also called UL34 MPR peptide; source: synthetic peptide, bought: Peptide 2.0
T1 peptide: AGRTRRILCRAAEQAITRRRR
Put plainly: cross-linking; SM(PEG)6 at 50-fold molar excess, 30 min at room temperature in PBS, with 1 mM POPC/POPS/POPA 3:1:1 SUVs; 50 μM peptide, or 25 μM each in mixtures; 16% Tris-tricine SDS-PAGE, Coomassie. To be noted: both partners purified.
B1: the binding result is “binds”.

For B2, the binding result is recorded as “binds”.

In another assay the target is T2, UL34^(174–194) peptide, spin-labelled at C182 (herpes simplex virus 1 (HSV-1), UniProt P10218 174-194, N-terminally acetylated; C-terminally amidated; MTSL spin label on the native cysteine C182).
T2 construct: also called UL34 MPR peptide; C182_(34); source: synthetic peptide, bought: Peptide 2.0
T2 peptide: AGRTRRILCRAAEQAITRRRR
Put plainly: DEER (double electron-electron resonance) spectroscopy; MTSL spin-labelled peptides, approximately 50 μM peptide or 1:1 peptide mixture with POPC/POPS/POPA 3:1:1 SUVs, 1:200 P/L ratio, incubated 10 min at 25°C, frozen, measured at 60 K. To be noted: both partners purified.
B3: the binding result was “binds”. On to B4, for which the binding result is on record as “binds”.

For the molecule B5, the binding result is given as “binds”.

Turning to B6, the binding result was “binds”.

These data come from paper PMC8406295, “Highly Basic Clusters in the Herpes Simplex Virus 1 Nuclear Egress Complex Drive Membrane Budding by Inducing Lipid Ordering” (mBio, 2021).
